How the values were obtained:
Test in all cases: cell-based or functional assay
[1] = molecular target: HIV-1 Env of isolate MGRM-D-014 (subtype D) (HIV-1)
[2] = molecular target: HIV-1 Env of isolate MGRM-F1-021 (subtype F) (HIV-1)
[3] = molecular target: HIV-1 Env of isolate MGRM-F1-023 (subtype F) (HIV-1)
[4] = molecular target: HIV-1 Env of isolate MGRM-F1-016 (subtype F) (HIV-1)
[5] = molecular target: HIV-1 Env of isolate MGRM-D-020 (subtype D) (HIV-1)
[6] = molecular target: HIV-1 Env of isolate MGRM-F1-006 (subtype F) (HIV-1)
[7] = molecular target: HIV-1 Env of isolate MGRM-D-012 (subtype D) (HIV-1)
[8] = molecular target: HIV-1 Env of isolate MGRM-D-028 (subtype D) (HIV-1)
[9] = molecular target: HIV-1 Env of isolate MGRM-D-013 (subtype D) (HIV-1)
[10] = molecular target: HIV-1 Env of isolate 92UG024 (subtype D) (HIV-1)
[11] = molecular target: HIV-1 Env of isolate MGRM-D-019 (subtype D) (HIV-1)
[12] = molecular target: HIV-1 Env of pseudovirus isolate MGRM-G-028 (subtype G) (HIV-1)
[13] = molecular target: HIV-1 Env of isolate MGRM-D-029 (subtype D) (HIV-1)
[14] = molecular target: HIV-1 Env of isolate MGRM-D-001 (subtype D) (HIV-1)
[15] = molecular target: HIV-1 Env of isolate MGRM-F1-014 (subtype F) (HIV-1)
[16] = molecular target: HIV-1 Env of pseudovirus isolate MGRM-G-027 (subtype G) (HIV-1)
[17] = molecular target: HIV-1 Env of pseudovirus isolate MGRM-G-004 (subtype G) (HIV-1)
[18] = molecular target: HIV-1 Env of isolate MGRM-F1-018 (subtype F) (HIV-1)
[19] = molecular target: HIV-1 Env of isolate MGRM-F1-015 (subtype F) (HIV-1)
[20] = molecular target: HIV-1 Env of isolate MGRM-D-005 (subtype D) (HIV-1)
[21] = molecular target: HIV-1 Env of isolate MGRM-D-016 (subtype D) (HIV-1)
[22] = molecular target: HIV-1 Env of isolate MGRM-D-018 (subtype D) (HIV-1)
[23] = molecular target: HIV-1 Env of pseudovirus isolate MGRM-G-019 (subtype G) (HIV-1)
[24] = molecular target: HIV-1 Env of isolate MGRM-D-008 (subtype D) (HIV-1)
[25] = molecular target: HIV-1 Env of isolate MGRM-F1-020 (subtype F) (HIV-1)
[26] = molecular target: HIV-1 Env of isolate MGRM-D-026 (subtype D) (HIV-1)
[27] = molecular target: HIV-1 Env of isolate 92UG001 (subtype D) (HIV-1)
[28] = molecular target: HIV-1 Env of isolate MGRM-F1-004 (subtype F) (HIV-1)
[29] = molecular target: HIV-1 Env of pseudovirus isolate MGRM-G-011 (subtype G) (HIV-1)
[30] = molecular target: HIV-1 Env of isolate MGRM-D-024 (subtype D) (HIV-1)
[31] = molecular target: HIV-1 Env of isolate MGRM-F1-022 (subtype F) (HIV-1)
[32] = molecular target: HIV-1 Env of isolate MGRM-F1-017 (subtype F) (HIV-1)
[33] = molecular target: HIV-1 Env of pseudovirus isolate MGRM-G-009 (subtype G) (HIV-1)
[34] = molecular target: HIV-1 Env of isolate MGRM-D-002 (subtype D) (HIV-1)
[35] = molecular target: HIV-1 Env of isolate MGRM-F1-008 (subtype F) (HIV-1)
[36] = molecular target: HIV-1 Env of pseudovirus isolate MGRM-G-025 (subtype G) (HIV-1)
[37] = molecular target: envelope of aMLV pseudovirus (negative control)
[38] = molecular target: HIV-1 Env of isolate MGRM-D-003 (subtype D) (HIV-1)
[39] = molecular target: HIV-1 Env of pseudovirus isolate MGRM-G-006 (subtype G) (HIV-1)
[40] = molecular target: HIV-1 Env of pseudovirus isolate MGRM-G-016 (subtype G) (HIV-1)
[41] = molecular target: HIV-1 Env of isolate 92UG005 (subtype D) (HIV-1)
[42] = molecular target: HIV-1 Env of isolate MGRM-F1-012 (subtype F) (HIV-1)
[43] = molecular target: HIV-1 Env of isolate MGRM-D-021 (subtype D) (HIV-1)
[44] = molecular target: HIV-1 Env of pseudovirus isolate MGRM-G-024 (subtype G) (HIV-1)
[45] = molecular target: HIV-1 Env of isolate MGRM-D-004 (subtype D) (HIV-1)
[46] = molecular target: HIV-1 Env of pseudovirus isolate MGRM-G-013 (subtype G) (HIV-1)
[47] = molecular target: HIV-1 Env of pseudovirus isolate MGRM-G-015 (subtype G) (HIV-1)
[48] = molecular target: HIV-1 Env of isolate 98CN006 (subtype CRF08_BC) (HIV-1)
[49] = molecular target: HIV-1 Env of pseudovirus isolate MGRM-G-014 (subtype G) (HIV-1)
[50] = molecular target: HIV-1 Env of isolate MGRM-D-011 (subtype D) (HIV-1)
[51] = molecular target: HIV-1 Env of isolate 98CN009 (subtype CRF07_BC) (HIV-1)
[52] = molecular target: HIV-1 Env of isolate MGRM-F1-010 (subtype F) (HIV-1)
[53] = molecular target: HIV-1 Env of pseudovirus isolate MGRM-G-017 (subtype G) (HIV-1)
[54] = molecular target: HIV-1 Env of isolate 92UG114 (subtype D) (HIV-1)
[55] = molecular target: HIV-1 Env of isolate 92UG046 (subtype D) (HIV-1)
[56] = molecular target: HIV-1 Env of pseudovirus isolate MGRM-G-001 (subtype G) (HIV-1)
[57] = molecular target: HIV-1 Env of isolate MGRM-D-022 (subtype D) (HIV-1)
[58] = molecular target: HIV-1 Env of isolate MGRM-F1-013 (subtype F) (HIV-1)

B1: PGT-137 (antibody, V domains shown)
VH: EVHLEESGPGLVRPSETLSLTCTASGGSIRGGEWGDSDYHWGWVRHSPEKGLEWIGSIHWRGTTHYNAPFRGRGRLSIDLSRNQFSLRLTSVTAEDTAVYYCVKHKYHDIVMVVPIAGWFDPWGQGLQVTVSS
VL: EIMMTQSPAILSVSPGDRATLSCRASQSVKNNLAWYQKRPGQAPRLLIFDTSSRASGIPARFSGGGSGTEFTLTVNSMQSEDFATYYCQQYEEWPRTFGQGTKVEIK
In the case of B1, the IC50 (neutralization) [1] is reported as > 50 µg/mL, the IC50 (neutralization) [2] is reported as > 50 µg/mL and the IC50 (neutralization) [3] is reported as > 50 µg/mL. For the same binder, the IC50 (neutralization) [4] was > 50 µg/mL, the IC50 (neutralization) [5] was > 50 µg/mL and the IC50 (neutralization) [6] was > 50 µg/mL. For the same binder, the IC50 (neutralization) [7] was > 50 µg/mL, the IC50 (neutralization) [8] was > 50 µg/mL and the IC50 (neutralization) [9] was > 50 µg/mL. The IC50 (neutralization) [10] was 0.106 µg/mL, the IC50 (neutralization) [11] was > 50 µg/mL and the IC50 [12] was > 50 µg/mL. For the same binder, the IC50 (neutralization) [13] was > 50 µg/mL, the IC50 (neutralization) [14] was > 50 µg/mL and the IC50 (neutralization) [15] was > 50 µg/mL. For the same binder, the IC50 [16] was 0.228 µg/mL, the IC50 [17] was > 50 µg/mL and the IC50 (neutralization) [18] was > 50 µg/mL. For the same binder, the IC50 (neutralization) [19] was > 50 µg/mL, the IC50 (neutralization) [20] was > 50 µg/mL and the IC50 (neutralization) [21] was > 50 µg/mL. For the same binder, the IC50 (neutralization) [22] was 15.1 µg/mL, the IC50 [23] was 0.126 µg/mL and the IC50 (neutralization) [24] was > 50 µg/mL. The IC50 (neutralization) [25] was 1.93 µg/mL, the IC50 (neutralization) [26] was > 50 µg/mL and the IC50 (neutralization) [27] was > 50 µg/mL. The IC50 (neutralization) [28] was 40.3 µg/mL, the IC50 [29] was > 50 µg/mL and the IC50 (neutralization) [30] was > 50 µg/mL. For the same binder, the IC50 (neutralization) [31] was 6.23 µg/mL, the IC50 (neutralization) [32] was > 50 µg/mL and the IC50 [33] was > 50 µg/mL. The IC50 (neutralization) [34] was > 50 µg/mL, the IC50 (neutralization) [35] was > 50 µg/mL and the IC50 [36] was > 50 µg/mL. For the same binder, the IC50 [37] was > 50 µg/mL, the IC50 (neutralization) [38] was > 50 µg/mL and the IC50 [39] was > 50 µg/mL. The IC50 [40] was > 50 µg/mL, the IC50 (neutralization) [41] was > 50 µg/mL and the IC50 (neutralization) [42] was > 50 µg/mL. The IC50 (neutralization) [43] was > 50 µg/mL, the IC50 [44] was 0.051 µg/mL and the IC50 (neutralization) [45] was > 50 µg/mL. The IC50 [46] was > 50 µg/mL, the IC50 [47] was > 50 µg/mL and the IC50 (neutralization) [48] was 1.22 µg/mL. For the same binder, the IC50 [49] was > 50 µg/mL, the IC50 (neutralization) [50] was 6.3 µg/mL and the IC50 (neutralization) [51] was 5.06 µg/mL. The IC50 (neutralization) [52] was > 50 µg/mL, the IC50 [53] was 34.9 µg/mL and the IC50 (neutralization) [54] was > 50 µg/mL. The IC50 (neutralization) [55] was > 50 µg/mL, the IC50 [56] was 41.7 µg/mL and the IC50 (neutralization) [57] was > 50 µg/mL. For the same binder, the IC50 (neutralization) [58] was > 50 µg/mL.

B2: PGT-136 (antibody, V domains shown)
VH: QLQLQESGPGLVKPSETLSLTCTVSGGSMRGTDWGENDFHYGWIRQSSAKGLEWIGSIHWRGRTTHYKTSFRSRATLSIDTSNNRFSLTFSFVTAADTAVYYCARHKYHDIFRVVPVAGWFDPWGQGLLVTVSS
VL: EIVMTQSPPTLSVSPGETATLSCRASQNVKNNLAWYQLKPGQAPRLLIFDASSRAGGIPDRFSGSGYGTDFTLTVNSVQSEDFGDYFCQQYEEWPRTFGQGTKVDIK
B2 was tested, and the IC50 (neutralization) [1] was > 50 µg/mL, the IC50 (neutralization) [2] was > 50 µg/mL and the IC50 (neutralization) [3] was > 50 µg/mL. The IC50 (neutralization) [4] was > 50 µg/mL, the IC50 (neutralization) [5] was > 50 µg/mL and the IC50 (neutralization) [6] was > 50 µg/mL. For the same binder, the IC50 (neutralization) [7] was > 50 µg/mL, the IC50 (neutralization) [8] was > 50 µg/mL and the IC50 (neutralization) [9] was > 50 µg/mL. The IC50 (neutralization) [10] was 0.052 µg/mL, the IC50 (neutralization) [11] was > 50 µg/mL and the IC50 [12] was > 50 µg/mL. For the same binder, the IC50 (neutralization) [13] was > 50 µg/mL, the IC50 (neutralization) [14] was > 50 µg/mL and the IC50 (neutralization) [15] was > 50 µg/mL. The IC50 [16] was 45.2 µg/mL, the IC50 [17] was > 50 µg/mL and the IC50 (neutralization) [18] was > 50 µg/mL. The IC50 (neutralization) [19] was > 50 µg/mL, the IC50 (neutralization) [20] was > 50 µg/mL and the IC50 (neutralization) [21] was > 50 µg/mL. For the same binder, the IC50 (neutralization) [22] was > 50 µg/mL, the IC50 [23] was 44.3 µg/mL and the IC50 (neutralization) [24] was > 50 µg/mL. The IC50 (neutralization) [25] was 9.31 µg/mL, the IC50 (neutralization) [26] was > 50 µg/mL and the IC50 (neutralization) [27] was > 50 µg/mL. The IC50 (neutralization) [28] was > 50 µg/mL, the IC50 [29] was > 50 µg/mL and the IC50 (neutralization) [30] was > 50 µg/mL. The IC50 (neutralization) [31] was 2.42 µg/mL, the IC50 (neutralization) [32] was > 50 µg/mL and the IC50 [33] was > 50 µg/mL. For the same binder, the IC50 (neutralization) [34] was > 50 µg/mL, the IC50 (neutralization) [35] was > 50 µg/mL and the IC50 [36] was > 50 µg/mL. The IC50 [37] was > 50 µg/mL, the IC50 (neutralization) [38] was > 50 µg/mL and the IC50 [39] was > 50 µg/mL. For the same binder, the IC50 [40] was > 50 µg/mL, the IC50 (neutralization) [41] was > 50 µg/mL and the IC50 (neutralization) [42] was > 50 µg/mL. For the same binder, the IC50 (neutralization) [43] was > 50 µg/mL, the IC50 [44] was 0.152 µg/mL and the IC50 (neutralization) [45] was > 50 µg/mL. The IC50 [46] was > 50 µg/mL, the IC50 [47] was > 50 µg/mL and the IC50 (neutralization) [48] was 0.406 µg/mL. For the same binder, the IC50 [49] was > 50 µg/mL, the IC50 (neutralization) [50] was > 50 µg/mL and the IC50 (neutralization) [51] was 0.428 µg/mL. For the same binder, the IC50 (neutralization) [52] was > 50 µg/mL, the IC50 [53] was > 50 µg/mL and the IC50 (neutralization) [54] was > 50 µg/mL. The IC50 (neutralization) [55] was > 50 µg/mL, the IC50 [56] was 8.11 µg/mL and the IC50 (neutralization) [57] was > 50 µg/mL. The IC50 (neutralization) [58] was > 50 µg/mL.

Source: patent publication US20160264649A1
